One may read the Kd as the free concentration of one partner at which half of the binding sites on the other are occupied at equilibrium, for simple one-to-one binding.

In test [1] the target is T1, Peptide B (human PAR-2), unbiotinylated (Human).
T1 construct: also called Peptide B No Biotin
T1 peptide: SLIGKVDGTSHVTG
Kind of test: SPR, antibody captured. A general note: In SPR one partner is held on a chip, and binding of the other changes the refractive index at the surface.

A further test has as its target monkey PAR-2 (monkey). Kind of test: cell-based or functional assay.
The target in another test is rat PAR-2 (rat, UniProt Q63645 37-397). Kind of test: cell-based or functional assay.
The target in another test is full length human PAR-2 (human, UniProt P55085 26-397). Kind of test: cell-based or functional assay.
Test [2] concerns the target T2, C-terminal biotinylated human PAR-2 peptide SEQ ID NO:881 (Gly-44 to Ala) (human, not fully specified; C-terminal biotin (K-B)).
T2 construct: alanine-scan mutant
T2 peptide: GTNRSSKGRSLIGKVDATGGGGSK
Kind of test: alanine scan by biolayer interferometry (Octet Red): C-terminal biotin peptide on streptavidin tips, 200 nM antibody; T1/2 relative to wild-type peptide SEQ ID NO:871. As to the method: (§1) In order to more particularly identify the amino acids of PAR-2 with which the PAR-2 antibodies interact, an alanine scanning study was carried out using peptides comprising the activating PAR-2 protease cleavage site.
(§2) The ability of each peptide mutant to bind to PAR-2 antibodies was measured using biolayer interferometry (Octet Red; ForteBio). Each peptide (2.5 μg/ml) was captured on streptavidin coated biosensor tips (Octet SA sensor) for 10 seconds. To measure binding and dissociation between each peptide and PAR-2 antibody, the peptide-coated biosensors were contacted with 200 nM solutions of PAR-2 antibodies for 5 minutes (binding) followed by transfer to buffer with no antibody for 10 min (dissociation). […] The results are expressed as percent binding and percent T_{1/2} relative to WT peptide (Tables 24-28).
In general terms: In BLI a coated tip is dipped into the sample, and binding shifts an interference pattern.

For test [3], the target named is T3, C-terminal biotinylated human PAR-2 peptide SEQ ID NO:873 (Arg-36 to Ala) (human, not fully specified; C-terminal biotin (K-B)).
T3 construct: alanine-scan mutant
T3 peptide: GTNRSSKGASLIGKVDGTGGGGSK
The description is as above. As to the method: as §1, §2

For test [4], the target named is T4, C-terminal biotinylated human PAR-2 peptide SEQ ID NO:874 (Ser-37 to Ala) (human, not fully specified; C-terminal biotin (K-B)).
T4 construct: alanine-scan mutant
T4 peptide: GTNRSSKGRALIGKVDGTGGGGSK
Described as above. As for the experimental part:
as §1, §2

For test [5], the target named is T5, C-terminal biotinylated human PAR-2 peptide SEQ ID NO:879 (Val-42 to Ala) (human, not fully specified; C-terminal biotin (K-B)).
T5 construct: alanine-scan mutant
T5 peptide: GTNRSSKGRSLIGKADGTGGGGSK
The description is as above. As to the method: as §1, §2

Test [6] addresses T6, C-terminal biotinylated human PAR-2 peptide SEQ ID NO:878 (Lys-41 to Ala) (human, not fully specified; C-terminal biotin (K-B)).
T6 construct: alanine-scan mutant
T6 peptide: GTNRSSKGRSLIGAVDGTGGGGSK
The description is as above. As to the method:
as §1, §2

The target of test [7] is T7, C-terminal biotinylated human PAR-2 peptide SEQ ID NO:882 (Thr-45 to Ala) (human, not fully specified; C-terminal biotin (K-B)).
T7 construct: alanine-scan mutant
T7 peptide: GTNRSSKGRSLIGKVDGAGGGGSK
The test is described as above. As for the experimental part: as §1, §2

The target in test [8] is T8, C-terminal biotinylated human PAR-2 peptide SEQ ID NO:880 (Asp-43 to Ala) (human, not fully specified; C-terminal biotin (K-B)).
T8 construct: alanine-scan mutant
T8 peptide: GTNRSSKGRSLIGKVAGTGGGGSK
The description is as above. As for the experimental part: as §1, §2

In test [9] the target is T9, C-terminal biotinylated human PAR-2 peptide SEQ ID NO:872 (Gly-35 to Ala) (human, not fully specified; C-terminal biotin (K-B)).
T9 construct: alanine-scan mutant
T9 peptide: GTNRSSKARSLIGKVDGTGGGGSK
The test is described as above. As for the experimental part:
as §1, §2

Test [10] has as its target T10, C-terminal biotinylated human PAR-2 peptide SEQ ID NO:875 (Leu-38 to Ala) (human, not fully specified; C-terminal biotin (K-B)).
T10 construct: alanine-scan mutant
T10 peptide: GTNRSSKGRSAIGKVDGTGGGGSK
Described as above. As to the method:
as §1, §2

Test [11] concerns the target T1, Peptide B (human PAR-2), unbiotinylated. Kind of test: SPR, antibody captured.
In test [12] the target is T11, Peptide F (monkey PAR-2), N-terminal biotinylated (Monkey (Macaca mulatta), N-terminal biotin via G4S linker).
T11 construct: also called Peptide F N-Term
The experiment in a line: SPR, antibody captured.

Chain of full length human PAR-2 (P55085 26-397 G138A limits assumed): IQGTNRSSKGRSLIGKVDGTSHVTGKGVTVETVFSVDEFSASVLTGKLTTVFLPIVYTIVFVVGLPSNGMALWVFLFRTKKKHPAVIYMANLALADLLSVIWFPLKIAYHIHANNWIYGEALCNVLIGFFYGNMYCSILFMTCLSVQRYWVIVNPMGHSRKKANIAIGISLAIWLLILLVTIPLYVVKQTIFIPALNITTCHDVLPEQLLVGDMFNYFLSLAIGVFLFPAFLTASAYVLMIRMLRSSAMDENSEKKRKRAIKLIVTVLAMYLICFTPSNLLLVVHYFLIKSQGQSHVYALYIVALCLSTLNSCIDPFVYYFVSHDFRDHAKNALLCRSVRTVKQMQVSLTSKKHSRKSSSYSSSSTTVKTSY
T11 sequence (peptide, as listed by the source): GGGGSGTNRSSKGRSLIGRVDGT
Chain of rat PAR-2 (Q63645 37-397): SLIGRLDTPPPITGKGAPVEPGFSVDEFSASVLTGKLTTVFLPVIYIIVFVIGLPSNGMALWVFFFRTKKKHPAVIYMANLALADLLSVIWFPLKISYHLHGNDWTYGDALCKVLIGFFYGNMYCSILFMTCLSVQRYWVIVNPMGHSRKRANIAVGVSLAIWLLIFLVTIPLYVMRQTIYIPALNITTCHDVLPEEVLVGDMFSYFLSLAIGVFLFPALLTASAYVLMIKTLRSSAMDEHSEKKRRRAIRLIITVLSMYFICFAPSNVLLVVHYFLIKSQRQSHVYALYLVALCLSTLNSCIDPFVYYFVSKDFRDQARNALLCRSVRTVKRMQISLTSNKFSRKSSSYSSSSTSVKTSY

B1: H4H583P (antibody, human IgG4, V domains shown)
VH: QVQLVESGGGVVQPGMSLRLSCTASGFTFRRYGMHWVRQAPGKGLEWVAVIWYDGSNKYYADSVKGRFTITRDNSKNTLYLQMNSLRAEDTAIYFCASEITIGDWFDPRGQGTLVTVSS
VL: AIQMTQSPSSLSASVGDRVTITCRASQGIRNDLGWFQQKPGKVPKLLIYAASTLHSGVPSRFSGSGFGTDFTLTISSLQPEDFATYYCLQDFNYPLTFGGGTKVEIK
notes: also called H1H583P variable regions
As to B1, the binding result in [1] was “no binding (tested: 15.6 to 250 nM peptide)”.

B2: H4H581P (antibody, human IgG4, V domains shown)
VH: QVQLVESGGGVVQPGRSLRLSCVASGFTFSRYGIHWVRQAPGKGLEWVIVISYDGINKYYADSVKGRFTISRDNSKNTVYLQMNSLRAEDTAVYYCAKGDFWSGYFDYWGQGTLVTVSS
VL: DIVMTQTPLSSPVTLGQPASISCRSSQSLVHSDGNTYLSWLHQRPGQPPRLLIYKISNRFSGVPDRFSGSGAGTDFTLQISRVEAEDVGIYYCMQATQFPTFGGGTKVEIK
notes: also called mAb H4H581P; H1H581P variable regions
Take B2: the “H4H581P IC50, NF-kB-luciferase, Bovine Factor Xa” value in the test with monkey PAR-2 is 0.9 nM; in the test with full length human PAR-2, 2.5 nM. Also, the “H4H581P IC50, NF-kB-luciferase, Human Kallikrein 5” value is 11 nM with monkey PAR-2 and 0.9 nM with full length human PAR-2. Besides, the figures for the “H4H581P IC50, NF-kB-luciferase, Human Kallikrein 14” value with monkey PAR-2 and with full length human PAR-2 were 11.6 nM and 1.2 nM, respectively. The “H4H581P IC50, NF-kB-luciferase, Human Pancreatic Trypsin” value in the test with monkey PAR-2 is 5.4 nM; with rat PAR-2 it was 700 nM; in the test with full length human PAR-2, 1.9 nM. The “H4H581P IC50, NF-kB-luciferase, Human Factor Xa” value with full length human PAR-2 turned out to be 1.1 nM. Besides, in the test with full length human PAR-2, the “H4H581P IC50, NF-kB-luciferase, Tryptase” value worked out at 3.5 nM. The “percent of T1/2 relative to wild-type peptide (average of duplicate experiments)” value in test [2] was found to be 121%; in test [3], 106%; in test [4], 5%; in test [5], 1%; in test [6], 56%; in [7], 112%. The figures for the “percent of T1/2 relative to wild-type peptide (average of duplicate experiments)” value in test [8], in test [9] and in test [10] were 20%, 118% and 0.2%, respectively.

B3: H4H588N (antibody, human IgG4, V domains shown)
VH: EVQLLESGGGLVQPGGSLRLSCAASGFTFSSYAMTWVRQAPGKGLYWVSAISGGRGSAYYADSVKGRFTISRDNSKNTLYLQMNSLRAEDTAVYYCAKEGDSGYDLAYWGRGTLVTVSS
VL: DIQMTQSPSSLSASVGDRVTITCRARQGISNNLAWLQQKPGKAPKSLIYAASSLQSGIPSKFSGSGSGTYFTLTISSLQPEDFATYYCQQYKSSPLTFGGGTKVEIK
notes: also called H2M588N variable regions
As to B3, the Kd in test [11] came to 84 nM; in [12], 7.1 nM. Further, the T1/2 amounted to 9 min in test [11] and 24 min in [12]. The “percent of T1/2 relative to wild-type peptide (average of duplicate experiments)” value in [2] is 1%; in test [3], 140%; in test [4], 85%; in test [5] it was 0.5%; in [6], 84%; in test [7], 64%. In addition, the “percent of T1/2 relative to wild-type peptide (average of duplicate experiments)” value in [8] was 4.5%; in test [9], 177%; in test [10], 71%.
